Data as given in paper doi:10.1101/2022.03.03.481873v1.

Key:
Assay in all cases: purified protein
[1] = test system: O=C(O)CCC(=O)C1=CC=C[C@@H](O)[C@@H]1C(=O)O; settings: 50 mM Tris pH 8.0, 0.1 mM MnCl2, 25 °C, Amycolatopsis numbering
purified protein [2] = substrate: O=C(O)CCC(=O)N[C@@H](C(=O)O)c1ccccc1; settings: 200 mM Tris pH 8.0, 0.1 mM MnCl2, 25 °C
purified protein [3] = substrate: O=C(O)CCC(=O)C1=CC=C[C@@H](O)[C@@H]1C(=O)O; settings: 50 mM Tris pH 8.0, 0.1 mM MnCl2, 25 °C
purified protein [4] = substrate: C[C@H](N)C(=O)N[C@@H](CCC(=O)O)C(=O)O; format: biochemical, Escherichia coli; settings: 50 mM Tris pH 8.0, 10 mM MgCl2, 25 °C
purified protein [5] = substrate: C[C@H](N)C(=O)N[C@@H](CCC(=O)O)C(=O)O; format: biochemical, Bacillus subtilis; settings: 50 mM Tris pH 8.0, 10 mM MgCl2, 25 °C

| Molecule | Km (purified protein [2]) [µM] | kcat (purified protein [2]) [s⁻¹] | Km (purified protein [3]) [µM] | kcat (purified protein [3]) [s⁻¹] | other results |
| --- | --- | --- | --- | --- | --- |
| LiNSAR/OSBS (Listeria innocua Clip11262; R266Q) | – | – | – | – | Km [1]: 163 ± 15 µM; kcat [1]: 0.57 ± 0.02 s⁻¹ |
| RcNSAR/OSBS (Roseiflexus castenholzii DSM 13941) (protein) MKIESITLHHIDMPLVAPFETSFGRETHRPCILIEMRADGLTGWGECVAGAGPWYAYETIGTAWHIISDFLAPMIVGQEITEPIGIVERFASVRGHPMARAAVEAAFWDLYAQARGVSLARLIGATRDRVTVGVSVGIELTLEAQLASIERFVAAGYARIKLKIKPGWDVAVVRAVRERWPDIALQVDANSAYTPDDAPIFRELDEMNLLLIEQPLHHDDIVDHARLQAQISTPICLDESIHSPEHARWALDIDACRVINIKIGRVGGLTAARQIHDLCAERGVPVWCGGMLETNVGRAVNLALAALPNFALPGDISASARYYHRDIAAPDFVLNDDSTITVPDTPGTGVAVLPERLRDVQVREVIIGKG | 900 ± 100 | 12.7 ± 0.4 | 116 ± 15 | 54.6 ± 2 | – |
| LiNSAR/OSBS (Listeria innocua Clip11262) (protein) MYFQKARLIHAELPLLAPFKTSYGELKSKDFYIIELINEEGIHGYGELEAFPLPDYTEETLSSAILIIKEQLLPLLAQRKIRKPEEIQELFSWIQGNEMAKAAVELAVWDAFAKMEKRSLAKMIGATKESIKVGVSIGLQQNVETLLQLVNQYVDQGYERVKLKIAPNKDIQFVEAVRKSFPKLSLMADANSAYNREDFLLLKELDQYDLEMIEQPFGTKDFVDHAWLQKQLKTRICLDENIRSVKDVEQAHSIGSCRAINLKLARVGGMSSALKIAEYCALNEILVWCGGMLEAGVGRAHNIALAARNEFVFPGDISASNRFFAEDIVTPAFELNQGRLKVPTNEGIGVTLDLKVLKKYTKSTEEILLNKGWS | 1000 ± 270 | 3.74 ± 0.5 | 155 ± 16 | 216 ± 7 | – |
| EfNSAR/OSBS (Enterococcus faecalis V583) (protein) MNIQSIETYQVRLPLKTPFVTSYGRLEEKAFDLFVITDEQGNQGFGELVAFEQPDYVQETLVTERFIIQQHLIPLLLTEAIEQPQEVSTIFEEVKGHWMGKAALETAIWDLYAKRQQKSLTEFFGPTRRKIPVGISLGIQEDLPQLLKQVQLAVEKGYQRVKLKIRPGYDVEPVALIRQHFPNLPLMVDANSAYTLADLPQLQRLDHYQLAMIEQPFAADDFLDHAQLQRELKTRICLDENIRSLKDCQVALALGSCRSINLKIPRVGGIHEALKIAAFCQENDLLVWLGGMFESGVGRALNLQFASQPTFSFPGDISATERYFYEDIITEPFILEQGTMTVPQGLGIGVTLSQTNLLKYSQYQKIM | 1500 ± 150 | 34 ± 1 | 17 ± 3 | 160 ± 7 | – |
| EcDE (Escherichia coli K-12) (protein) MRTVKVFEEAWPLHTPFVIARGSRSEARVVVVELEEEGIKGTGECTPYPRYGESDASVMAQIMSVVPQLEKGLTREELQKILPAGAARNALDCALWDLAARRQQQSLADLIGITLPETVITAQTVVIGTPDQMANSASTLWQAGAKLLKVKLDNHLISERMVAIRTAVPDATLIVDANESWRAEGLAARCQLLADLGVAMLEQPLPAQDDAALENFIHPLPICADESCHTRSNLKALKGRYEMVNIKLDKTGGLTEALALATEARAQGFSLMLGCMLCTSRAISAALPLVPQVSFADLDGPTWLAVDVEPALQFTTGELHL | – | – | – | – | Km (purified protein [4]): 340 ± 60 µM; kcat (purified protein [4]): 11.4 ± 0.7 s⁻¹ |
| BsDE (Bacillus subtilis subsp. subtilis str. 168; K271Q) (protein) MKIIRIETSRIAVPLTKPFKTALRTVYTAESVIVRITYDSGAVGWGEAPPTLVITGDSMDSIESAIHHVLKPALLGKSLAGYEAILHDIQHLLTGNMSAKAAVEMALYDGWAQMCGLPLYQMLGGYRDTLETDYTVSVNSPEEMAADAENYLKQGFQTLKIKVGKDDIATDIARIQEIRKRVGSAVKLRLDANQGWRPKEAVTAIRKMEDAGLGIELVEQPVHKDDLAGLKKVTDATDTPIMADESVFTPRQAFEVLQTRSADLINIKLMQAGGISGAEKINAMAEACGVECMVGSMIETKLGITAAAHFAASKRNITRFDFDAPLMLKTDVFNGGITYSGSTISMPGKPGLGIIGAALLKGEKEQ | – | – | – | – | Km (purified protein [5]): 508 ± 165 µM; kcat (purified protein [5]): 0.23 ± 0.03 s⁻¹ |
| BsDE (Bacillus subtilis subsp. subtilis str. 168) (protein) MKIIRIETSRIAVPLTKPFKTALRTVYTAESVIVRITYDSGAVGWGEAPPTLVITGDSMDSIESAIHHVLKPALLGKSLAGYEAILHDIQHLLTGNMSAKAAVEMALYDGWAQMCGLPLYQMLGGYRDTLETDYTVSVNSPEEMAADAENYLKQGFQTLKIKVGKDDIATDIARIQEIRKRVGSAVKLRLDANQGWRPKEAVTAIRKMEDAGLGIELVEQPVHKDDLAGLKKVTDATDTPIMADESVFTPRQAFEVLQTRSADLINIKLMKAGGISGAEKINAMAEACGVECMVGSMIETKLGITAAAHFAASKRNITRFDFDAPLMLKTDVFNGGITYSGSTISMPGKPGLGIIGAALLKGEKEQ | – | – | – | – | Km (purified protein [5]): 452 ± 120 µM; kcat (purified protein [5]): 21.4 ± 2 s⁻¹ |
